# Results reported in the supplement of paper PMC9732359.
# ± gives the uncertainty stated by the source.
# Assay: protein stability index of a GFP-peptide fusion (yeast GPS) (PSI 1-4); higher = more stable; sorted into four equal gates, so the index is relative within each strain
# Outline: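 Plasmids isolated from each sorting gate were PCR-amplified and Illumina-sequenced, and barcodes assigned the reads to strains. The gates, four of equal size, were set by GFP/Cherry fluorescence ratio on mid-log cultures in leucine-free medium. These cultures were yeast carrying a pooled library of tiled 17-residue yeast protein peptides fused downstream of GFP on a plasmid that also expresses Cherry. The protein stability index is the sum of every gate's read frequency times its gate number.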
sequence,measurement,setting,value
IIDGPKALILAPTRELV [PRP28],protein stability index,doa10∆,1.59 ± 0.062
same,protein stability index,pdr5∆,2.32 ± 0.053
same,protein stability index,san1∆,1.89 ± 0.1
same,protein stability index,ubr1∆,1.68 ± 0.052
LLHHVSELDSNDFFIIY [YJL039C/NUP192],protein stability index,doa10∆,1.7 ± 0.088
same,protein stability index,pdr5∆,1.74 ± 0.088
same,protein stability index,san1∆,1.61 ± 0.14
same,protein stability index,ubr1∆,2.02 ± 0.078
VQARDNSQVFGVARIYA [RPS14B],protein stability index,doa10∆,2.39 ± 0.074
same,protein stability index,pdr5∆,2.3 ± 0.054
same,protein stability index,san1∆,2.78 ± 0.047
same,protein stability index,ubr1∆,2.91 ± 0.059
NNVKQMVMAGSKGSFIN [RPO21],protein stability index,doa10∆,1.57 ± 0.091
same,protein stability index,pdr5∆,1.78 ± 0.095
same,protein stability index,ubr1∆,1.94 ± 0.068
LFKPLNKTLTLDLKECY [ARP7],protein stability index,doa10∆,2.4 ± 0.067
same,protein stability index,pdr5∆,2.14 ± 0.068
same,protein stability index,san1∆,1.89 ± 0.15
same,protein stability index,ubr1∆,2.27 ± 0.12
KALDELKPEIEKLTSKS [LRP1],protein stability index,doa10∆,2.86 ± 0.089
same,protein stability index,pdr5∆,2.93 ± 0.077
same,protein stability index,san1∆,2.93 ± 0.068
same,protein stability index,ubr1∆,2.74 ± 0.066
DIEDALVLNKSSIDRGF [RET1],protein stability index,doa10∆,2.37 ± 0.095
same,protein stability index,pdr5∆,2.83 ± 0.14
same,protein stability index,san1∆,2.24 ± 0.19
same,protein stability index,ubr1∆,2.97 ± 0.22
QQRKQKKNRDKKIFGTG [RPS24A],protein stability index,doa10∆,3.17 ± 0.093
same,protein stability index,pdr5∆,3.14 ± 0.055
same,protein stability index,san1∆,3.25 ± 0.035
same,protein stability index,ubr1∆,3.06 ± 0.067
DVVERLHKNFESENFKI [RGR1],protein stability index,doa10∆,3.74 ± 0.18
same,protein stability index,pdr5∆,3.4 ± 0.3
same,protein stability index,san1∆,3.23 ± 0.18
same,protein stability index,ubr1∆,3.81 ± 0.18
FGANQATNTFGSNQQSS [YGR119C/NUP57],protein stability index,doa10∆,2.91 ± 0.12
same,protein stability index,pdr5∆,3.26 ± 0.076
same,protein stability index,san1∆,3.2 ± 0.12
same,protein stability index,ubr1∆,2.92 ± 0.073
LFLNTGCLSVLYQSKGR [SRP68],protein stability index,doa10∆,1.66 ± 0.054
same,protein stability index,pdr5∆,1.55 ± 0.069
same,protein stability index,san1∆,1.48 ± 0.12
same,protein stability index,ubr1∆,1.25 ± 0.059
LGQIGACHVEVPYVLMG [COB],protein stability index,doa10∆,2.05 ± 0.083
same,protein stability index,pdr5∆,2.01 ± 0.066
same,protein stability index,san1∆,1.89 ± 0.12
same,protein stability index,ubr1∆,1.95 ± 0.06
IFISSDHEFVLISLIMT [YMR129W/POM152],protein stability index,doa10∆,1.3 ± 0.13
same,protein stability index,pdr5∆,1.24 ± 0.071
same,protein stability index,san1∆,2.01 ± 0.16
same,protein stability index,ubr1∆,1.61 ± 0.29
FQIIDTLLPGLQDEVMN [RPS2],protein stability index,doa10∆,2.32 ± 0.082
same,protein stability index,pdr5∆,1.72 ± 0.059
same,protein stability index,san1∆,2.22 ± 0.091
same,protein stability index,ubr1∆,2.09 ± 0.05
SLYKVSFLEKPKFAIQD [YMR129W/POM152],protein stability index,doa10∆,2.93 ± 0.11
same,protein stability index,pdr5∆,2.68 ± 0.12
same,protein stability index,san1∆,2.77 ± 0.071
same,protein stability index,ubr1∆,2.53 ± 0.13
KKASDLVDTPSNNTAAT [NUT1],protein stability index,doa10∆,3.28 ± 0.1
same,protein stability index,pdr5∆,3.17 ± 0.074
same,protein stability index,san1∆,3.11 ± 0.046
same,protein stability index,ubr1∆,3.21 ± 0.06
VTTFLNWCAEPEHDERK [CYT1],protein stability index,doa10∆,3.41 ± 0.089
same,protein stability index,pdr5∆,3.39 ± 0.092
same,protein stability index,san1∆,3.08 ± 0.18
same,protein stability index,ubr1∆,3.15 ± 0.077
MPDMNEMMKMMQDPQMQ [SRP54],protein stability index,doa10∆,3.22 ± 0.19
same,protein stability index,pdr5∆,3.45 ± 0.21
same,protein stability index,san1∆,3.5 ± 0.083
same,protein stability index,ubr1∆,3.33 ± 0.084
GRPRGRPKKVKLEGSEN [SNF2],protein stability index,doa10∆,3.41 ± 0.19
same,protein stability index,pdr5∆,3.21 ± 0.21
same,protein stability index,san1∆,3.27 ± 0.098
same,protein stability index,ubr1∆,3.65 ± 0.17
LRDREDWGQALRLLLLL [YJR042W/NUP85],protein stability index,doa10∆,2.83 ± 0.066
same,protein stability index,pdr5∆,2.13 ± 0.067
same,protein stability index,san1∆,2.2 ± 0.083
same,protein stability index,ubr1∆,1.66 ± 0.044
INGEPSIHVNRVERSSR [RRI1],protein stability index,doa10∆,2.99 ± 0.078
same,protein stability index,pdr5∆,3.01 ± 0.067
same,protein stability index,san1∆,3.1 ± 0.053
same,protein stability index,ubr1∆,3.1 ± 0.051
TPLTFALPRGARTATVS [RPL14A],protein stability index,doa10∆,1.55 ± 0.063
same,protein stability index,pdr5∆,1.5 ± 0.061
same,protein stability index,san1∆,1.4 ± 0.1
same,protein stability index,ubr1∆,1.57 ± 0.049
GDVVLAAAYSHELPRYG [RPL5],protein stability index,doa10∆,2.83 ± 0.073
same,protein stability index,pdr5∆,2.95 ± 0.068
same,protein stability index,san1∆,2.99 ± 0.061
same,protein stability index,ubr1∆,2.97 ± 0.074
VITLAEYEKRNHGGSLG [SRP68],protein stability index,doa10∆,3.42 ± 0.11
same,protein stability index,pdr5∆,3.06 ± 0.13
same,protein stability index,san1∆,3.28 ± 0.074
same,protein stability index,ubr1∆,3.55 ± 0.14
LQDLSRYSRQFINNVLS [GRR1],protein stability index,doa10∆,2.78 ± 0.059
same,protein stability index,pdr5∆,2.29 ± 0.049
same,protein stability index,san1∆,2.56 ± 0.049
same,protein stability index,ubr1∆,2.74 ± 0.051
PTDQNNQSNLNGGNNTQ [SNF2],protein stability index,doa10∆,2.46 ± 0.083
same,protein stability index,pdr5∆,3.03 ± 0.072
same,protein stability index,san1∆,3.13 ± 0.079
same,protein stability index,ubr1∆,3.01 ± 0.063
DRVEDICERIFEQGQAL [RRI2],protein stability index,doa10∆,2.72 ± 0.12
same,protein stability index,pdr5∆,3.02 ± 0.17
same,protein stability index,san1∆,3.18 ± 0.22
LGFVLLRDYTTVPRIVQ [RPN2],protein stability index,doa10∆,1.58 ± 0.046
same,protein stability index,pdr5∆,1.66 ± 0.053
same,protein stability index,san1∆,1.35 ± 0.076
same,protein stability index,ubr1∆,1.42 ± 0.038
NGFSFTKFNHNKEKSNS [YOR098C/NUP1],protein stability index,doa10∆,2.69 ± 0.082
same,protein stability index,pdr5∆,2.98 ± 0.075
same,protein stability index,san1∆,2.77 ± 0.039
same,protein stability index,ubr1∆,2.57 ± 0.052
LKHLEEMGKLRERDITS [RRI2],protein stability index,doa10∆,2.76 ± 0.079
same,protein stability index,pdr5∆,2.58 ± 0.11
same,protein stability index,san1∆,2.55 ± 0.15
same,protein stability index,ubr1∆,3.16 ± 0.068
PLSGLLFKNYRFNFISK [YMR129W/POM152],protein stability index,doa10∆,2.85 ± 0.11
same,protein stability index,pdr5∆,2.17 ± 0.07
same,protein stability index,san1∆,1.73 ± 0.098
same,protein stability index,ubr1∆,2.25 ± 0.094
IKMQRQFSQLNDPNAAV [MED6],protein stability index,doa10∆,3.01 ± 0.07
same,protein stability index,pdr5∆,3.04 ± 0.059
same,protein stability index,san1∆,3.09 ± 0.06
same,protein stability index,ubr1∆,3.16 ± 0.059
SVKDYRPAEETEAQAEP [RPS3],protein stability index,doa10∆,2.76 ± 0.065
same,protein stability index,pdr5∆,3.07 ± 0.068
same,protein stability index,san1∆,3.11 ± 0.041
same,protein stability index,ubr1∆,2.93 ± 0.043
KRCLFESLSNEAALKAN [RPO31],protein stability index,ubr1∆,2.84 ± 0.22
DLSLNITLHPSFFGPRM [RPB7],protein stability index,doa10∆,2.25 ± 0.22
same,protein stability index,pdr5∆,1.83 ± 0.1
same,protein stability index,san1∆,1.7 ± 0.14
same,protein stability index,ubr1∆,1.55 ± 0.074
MTSIGTGYDLSNSVFSP [PRE10],protein stability index,doa10∆,2.77 ± 0.085
same,protein stability index,pdr5∆,2.91 ± 0.11
same,protein stability index,san1∆,2.23 ± 0.27
same,protein stability index,ubr1∆,2.8 ± 0.12
KTAFKPHELTESVLPAA [QCR2],protein stability index,doa10∆,2.36 ± 0.049
same,protein stability index,pdr5∆,2.69 ± 0.051
same,protein stability index,san1∆,2.62 ± 0.057
same,protein stability index,ubr1∆,2.8 ± 0.038
HFGHCFNITDNGVRALF [GRR1],protein stability index,doa10∆,2.07 ± 0.18
same,protein stability index,pdr5∆,2.65 ± 0.13
same,protein stability index,ubr1∆,2.64 ± 0.1
GSYLCTSSTPSPIKNGS [YOR098C/NUP1],protein stability index,doa10∆,2.95 ± 0.054
same,protein stability index,pdr5∆,2.94 ± 0.054
same,protein stability index,san1∆,2.78 ± 0.053
same,protein stability index,ubr1∆,2.97 ± 0.04
RNNHNSNTSTSKMLDAA [SNF12],protein stability index,doa10∆,3.01 ± 0.058
same,protein stability index,pdr5∆,3.04 ± 0.044
same,protein stability index,san1∆,3.22 ± 0.092
same,protein stability index,ubr1∆,3.01 ± 0.048
IHPIPSVTVSQGNYVTE [YMR129W/POM152],protein stability index,doa10∆,2.21 ± 0.055
same,protein stability index,pdr5∆,2.6 ± 0.066
same,protein stability index,san1∆,2.58 ± 0.073
same,protein stability index,ubr1∆,2.43 ± 0.043
GITGNLDRIPMHSYFIF [COB],protein stability index,doa10∆,2.13 ± 0.12
same,protein stability index,pdr5∆,2.19 ± 0.085
same,protein stability index,san1∆,2.39 ± 0.072
same,protein stability index,ubr1∆,2.43 ± 0.12
RGKDCTVVISQKKVPDK [SCL1],protein stability index,doa10∆,2.59 ± 0.086
same,protein stability index,pdr5∆,2.83 ± 0.076
same,protein stability index,san1∆,2.83 ± 0.074
same,protein stability index,ubr1∆,2.71 ± 0.051
ETEQEYSPSNEISISFD [YDL116W/NUP84],protein stability index,doa10∆,2.65 ± 0.058
same,protein stability index,pdr5∆,2.89 ± 0.067
same,protein stability index,san1∆,2.52 ± 0.059
same,protein stability index,ubr1∆,2.98 ± 0.048
KVIPYSTFRLNLSVTSP [RPO21],protein stability index,doa10∆,1.67 ± 0.065
same,protein stability index,pdr5∆,1.53 ± 0.075
same,protein stability index,san1∆,1.14 ± 0.24
same,protein stability index,ubr1∆,1.97 ± 0.13
AKYETSILEHSGIRLIE [FAS2],protein stability index,doa10∆,3.32 ± 0.062
same,protein stability index,pdr5∆,3.3 ± 0.063
same,protein stability index,san1∆,3.09 ± 0.051
same,protein stability index,ubr1∆,3.37 ± 0.052
PGIISITSLQDSSSQCI [YMR129W/POM152],protein stability index,doa10∆,2.86 ± 0.076
same,protein stability index,pdr5∆,3.04 ± 0.074
same,protein stability index,san1∆,3 ± 0.066
same,protein stability index,ubr1∆,3.14 ± 0.085
VIWSEDNDEKLIIRCRV [RPO21],protein stability index,doa10∆,3.34 ± 0.15
same,protein stability index,pdr5∆,2.96 ± 0.19
same,protein stability index,san1∆,3.53 ± 0.088
same,protein stability index,ubr1∆,2.84 ± 0.19
PENLQVTSEKYPFDKLE [BRR2],protein stability index,doa10∆,2.86 ± 0.085
same,protein stability index,pdr5∆,3.07 ± 0.093
same,protein stability index,san1∆,2.93 ± 0.064
same,protein stability index,ubr1∆,3.19 ± 0.035
KRIHSVRTRGGNKKYRA [RPS8A],protein stability index,doa10∆,2.509 ± 0.024
same,protein stability index,pdr5∆,2.621 ± 0.022
same,protein stability index,san1∆,2.626 ± 0.025
same,protein stability index,ubr1∆,2.591 ± 0.018
FLRTMKLTSEETVFNYR [GRR1],protein stability index,doa10∆,3.11 ± 0.066
same,protein stability index,pdr5∆,2.81 ± 0.067
same,protein stability index,san1∆,3 ± 0.06
same,protein stability index,ubr1∆,3.02 ± 0.052
